The text below walks through data of the DeepSol protein solubility set.

This series can be described thus: soluble on expression in E. coli; label from the status in PepcDB or PDB records.
With “SLRSLLTRRTIAIEGCCHGELDAIYSSLARLEEMHKMKVDLLICCGDFQFLACPPKYRDLRDFPAYFRGEKEAPCLTVFVGGNHEAPTVLRELYYGGWVAPKIFYLGHAGVVNVGGVRIAGLSGIFKSQDYRKGYFERPPYTEDTMRSAYHVREFEIAKLNRELTGRVDIVVTHDWPEGIYDFGDKTELIRQKPFLEKDIQAHELGNPHSMELLKKLKPAFWFAAHLHTRFAAVYVHPGPEGKATRFLALDKVLPRREFLQILEVEPLLPAGYVQQLSPGISRRSPTLCYDEEWLAILRANQQVLPVSRFPQKSCLVTKATADDLATVKKNLASLGLR”, the “soluble on expression in E. coli” value is reported as “soluble”.

Consider “MSLIYFETERLIARDYLTNDYLPFSQMNADEQVMKYFPARLTQNESNAFLDRIQEELKSLGYGLFAIEVKSTGEFIGFTGFHEATFEATFTPCTEIGWRLKHSAWNQGYATEAALGALALAEEINTINEIYSFTAALNKPSENVMKKIHLTKIATFEHPALVNGDPLKPHVLYKKAEGHHHHHH”, for which the “soluble on expression in E. coli” value is “soluble”.

On to “MSLKFHSPSCFLSAGEPSGDTLGSDLLRNIKELNPNIHCFGVGGPLMRKEGLEPLIRMEEFQVSGFLEVFCAVFSLYKKYRKLYKAILKENPETVFCIDFPDFHFFLIRKLRKCGYRGKIIHYVCPSIWAWRPNRKKILEKHLDTLLLILPFEKEIFKDSPLKTIYLGHPLVKTIANFQDCNAWKQQLEISDQPSVALFPGSRPGDIFRNLQVQARAFRSSSLAKSHQLLVSSCNPKYDKKILELLDKEGCHNNKIVPSKFRYQLMRDCDCALAKCGTIVLEAALNQTPTIVTCLLRPFDTFLAKYIFKIFIPAYSLPNIITGSVIFPEFIGGKHDFSPEEVAAAIDILANPIGKEKQKYACQQLLKTMTENVITPKECLQAIYAQKNREGHHHHHH”, for which the “soluble on expression in E. coli” value is given as “not soluble”. To “MSLDKPVLLLGEICVDFTLSTPMSSAKMRLGGVVHAARGLWALNVPYSVAAICPDYLVSEAEAYLYAHGCTNFIQVGTVLGAPNVFLIGDAREVGHQGYENILREAKKVLTFDLDEKLRGFKNIVVYPGTFDFEGIVKNLDSDAKITVDIAYDVNDADELSRVYGASHALAISTSSELFSSLALENLGPLLKACKTRSAKHLLLKENRGGSRLFDLESGESWEIPATLARTVNSVGVGDVYTAVFAALIDHGALTAALRGMQAATRYAQTTFPDDFKRDVQRDEGHHHHHH” belongs “not soluble”; to “MENVVIIDAVRTPMGRSKGGAFRHVRAEDLSAHLMRAVISRNPGLNAAEIDDIYWGCVQQTLEQGFNIARNASLLAEIPHSVPAVTVNRLCGSSMQALHDGARAIMVGDAKISLIGGVEHMGHVPMNHGVDFHPGMGRTVAKAAGMMGLTAEMLAKIHNISRQSQDEFAFRSHQRAYAATQAGHFAKEIVATNGHDAEGVLKRFDFDEVIRPETNLSGLAALRPAFDPVNGTVTAGTSSALSDGASAMLIMSESRAKSLGLTPRARIRSMAVVGCDPSIMGYGPVPASQLALKRAGLELADIGLFELNEAFAAQSLACLKGLGLLESMDDKVNLNGGAIALGHPLGCSGARISTTLLNLMERRDVQFGLATMCIGLGQGIATVFERL”, “not soluble”. To “SGQKVTGGIKTVDMRDPTYRPLKQELQGLDYCKPTRLDLLLDMPPVSYDVQLLHSWNNNDRSLNVFVKEDDKLIFHRHPVAQSTDAIRGKVGYTRGLHVWQITWAMRQRGTHAVVGVATADAPLHSVGYTTLVGNNHESWGWDLGRNRLYHDGKNQPSKTYPAFLEPDETFIVPDSFLVALDMDDGTLSFIVDGQYMGVAFRGLKGKKLYPVVSAVWGHCEIRMRYLNGLDPEPLPLMDLCRRSVRLALGRERLGEIHTLPLPASLKAYLLYQ” belongs “soluble”; to “DVKLVQSGPGLVAPSQSLSITCTVSGFSLTTYGVSWVRQPPGKGLEWLGVIWGDGNTTYHSALISRLSISKDNSRSQVFLKLNSLHTDDTATYYCAGNYYGMDYWGQGTSVTVSSAETTAPSVYKLEPVSSVTLGCLVKGYFPEPVTLTWNSGSLSSGVHTFPAVLQSDLYTLSSSVTVTSSTWPSQSITCNVAHPASSTKVDKKIEPRG”, “soluble”; to “MVKNQFPLVADGIAISDPAKQMALYENEDLITNIRGYYQDKEYDDIARNEEFTAKATSRQTPSSKRFCSNDEKHHYVKEARQKAKQDLKEKRQAYLAKEMAYVPKQVSKKQQPADSSPSQKQATTEMSRFTKKLHQDNYILAELPKEYKEPKNLPQQGTTKKNNYDFLKSSQIYNNKEMRQQREKTIAQELNLSRFEDLP”, “not soluble”. For “MAHHHHHHMSDSALLEGVSFPVEPFAEKHRKILALLAHAATQAVNTRSNEVVFDVLCSSEPSLARLYPEVAVLQGVHQIRRVLRNLQDSQPHVRPMYLKMIVDSLKDMNEMLPDPLLLVIARTVEILEGEGRGFRELEPHLLDLVEYIQVVILRETKLLQCRGTLITLRLRGVPPFVASETESTT” the value was “not soluble”. In the case of “MVKATAIDMSLSDIISTNRKNKKVVKKPIKKSAGGIRKRGNASNVGTPRRQSGGTSRGGGRMGNTVRRSAGGSSNDNKQVRINISNLAETVISSDLQELFGAFNLHKVSVNFNENGGAAGTGDITLKKYDADRLIQKFAGVALDGKVMHFAVIESSNFARKPEIRGTPNRRQSSGKPINRKVANPPRRQNAAKPPVKKGKKPAREQKPPKTAEQLDAELDAYMSRSA”, the “soluble on expression in E. coli” value is listed as “not soluble”. For “PDMKESMSDLYYEMISSAQKSIWIATPYFVPNESIRTALKAAATKGVEVRVMVPEKNDSFLTQYASRSYFPELLLEGIEVYSYQKGFMHQKVMIIDGDLASVGTANMDMRSFQLNFEVNVFFTDAEAIRTLEAHFEEDMQESEKLS” the value was “soluble”; for “GAASPGPSRPGLVPVSIIGAEDEDFENELETNSEEQNSQFQSLEQVKRRPAHLMALLQHVALQFEPGPLLCCLHADMLGSLGPKEAKKAFLDFYHSFLEKTAVLRVPVPPNVAFELDRTRADLISEDVQRRFVQEVVQSQQVAVGRQLEDFRSKRLMGMTPWEQELAQLEAWVGRDRASYEARERHVAERLLMHLEEMQHTISTDEEKSAAVVNAIGLYMRHLGVRTKSGDKK”, “soluble”. For “MGSDKIHHHHHHMFTSFAFVTGAFVLFGCDNGRNSDTICKNNPELCEDLHKDSWCRYEKGDLIRQRFILKTTPNPTGKQIYDQLRFLEVYSKCIELASGVQHKVNVQRTNDRLRAFGISVQNLEELQESTKGSQDPYLAYYHWSRLDDAKSLAVLIKAEKEGQISDPELLSKLAIYYLKTDAARAKKLYLDVLGMVDADHLDPDWLLGLATASRTLGDLDGSYLYSRANIALTKQSVNEAQMLALLTGDKTKAAMLDSEAEQLAKAVSSGNFAGSAIEKRLRAEIDTERAKIEPVAPLAQD” the value was “not soluble”; for “MSLKIFDAHCDVLLQLWSAQGRKDFKHDSQLHITFEQLKRRKGSIQCFAIYVPETVAYENRFEVALQMVDIFYNEILSLPGVKFIQTKDDINMLKQDEIGAILTLEGCEAIGKDAMKIRLLYRLGVRSFGLTWNYANLLADGALETRGAGLTTSGKHVVQELNALHVWTDVSHLNERSFWDVIEIAKNPIASHSNCMKLCQHPRNLNDEQLKALIKRNGMIGVTFVPQFLTNEKQANVADIIRHIEYICSLGGENNIGFGSDFDGILETVVNVSAYRDYENVVNELCKHYAASTVERFLYDNFVEHISEGHHHHHH”, “not soluble”; for “MGSDKIHHHHHHMKFIHTSDWHIGRQLHNQSLLDDQAFVLEQIIALADEHKVDAVIVAGDIYDRSIPPANAVALLDDVLNRLVHDLGLQVIMIAGNHDGHERLGFAAKQMAASGLHIIGPLSADIHPITLSSSSGDVVFYPLPYAEPATVRQVFECEAASHEAAMTLLLEQVRQHDSQGLPKVVISHCFLDGGSESESERPLSIGGADKISPTLFTEFDYVALGHLHGPQYKGAEHVRYSGSILKYSFSEQHQHKSVTLVELSAQTPIKIRLLPLTSIRDVRILEGELATLLVQGKTDIKREDYLMVRLLDKHAILDAMGKLRAVYPNVLHLERTGLMAGQQQVTLSRDHIKKGEMDMFRDFFSQVSGESLTQAQQAVMDELLTKLHNEERQA”, “not soluble”.

For “MNHLLSMEHLSTDQIYKLIQKASQFKSGERQLPNFEGKYVANLFFENSTRTKCSFEMAELKLGLKTISFETSTSSVSKGESLYDTCKTLESIGCDLLVIRHPFNNYYEKLANINIPIANAGDGSGQHPTQSLLDLMTIYEEYGYFEGLNVLICGDIKNSRVARSNYHSLKALGANVMFNSPNAWIDDSLEAPYVNIDDVIETVDIVMLLRIQHERHGLAEETRFAADDYHQKHGLNEVRYNKLQEHAIVMHPAPVNRGVEIQSDLVEASKSRIFKQMENGVYLRMAVIDELLK”, the “soluble on expression in E. coli” value is on record as “not soluble”. Consider “MGSDKIHHHHHHMIGDEPIRIRQLQALNILAESGTMSLTAKAMNISQPAVSRLLSDLSKELGYPLFSRSGRRLTLTREAQYLLPEIQRIFGAMGQIRNLRQNIQDGTSGHLKIACLPGFSTSHLPGVVADFLAARPKTTLTIEPDRPERILDWVIGEQYDCGITDGFRSHHALDSKTIPIRCVCIFPEGHPLEAKSVIHPEDLAGERIAHDRFGSEFYLRLRDILDAEGIAMDNFIETRQFTCACELVSKGVCVSVVSELDAQEYIGKGVSFRPFSANITHQLSLVWPRHTPTSILTLEFLGLFEKSLEPYAMTET”, for which the “soluble on expression in E. coli” value is reported as “not soluble”. For the sequence “MKISIENIGKIKSTSILLDGFTVIAGENDSGKSTVGKIVYSIIQAFSIYPQFRKEKIRRKTSHSLRFFITELRRNFDLTKHDSLRQMMSFSFVNHIMADPDDALYEIRGVLDKLEESYPEKLETLIKLKSRLYGIQREIDSLSESDDIFESITDLMQSEFGGEIDRKQDSRPPSFEINDGETTVISAKFSDGIITDGIYSGGLGLGLGDATYIDGASILQYAHLINLNDSDPRLPFHITDLARKLISPTLVRGGSSNLADIYKGRLVFDETQNSFYFDKGGYRVCLNNIASGIKNIGVLDLLVKKGVICDGSLLVLDEPEINLHPKWQTQLAKIICELHQAGVYILLTTHSPYMIEALHYYANVSGIKSNFYLACKSIANPDDVDFIDLSMNVGAIIEDLAQPLWDIVEDNNEFLEHHHHHH”, the “soluble on expression in E. coli” value is “soluble”. To “MSPLSSGLLGDLDPTSDRAVFRQIADQLREAIDRGRFREGEKLPSEAELVDHYGVSRMTVRNSFSILQGEGLVHAEHGKGVFVRPRPPVRRLASDRFARRHREQGKSAFIVEADAVGSHPKVDSLEVKEEKASQDISTRLGSVRRVLARRRRYLLDGRPVEFATSYLPLDIARGTQIAEPNPGPGGIYARLEELGHRLDHFEEEIRARMPSPAEVKTLHLAAGVPVIHLIRTAFDTEGRAVEVCDTVMAADAYVLSYQLPAT” belongs “not soluble”. For “MGSDKIHHHHHHMRKLKKYKPTAFIADGSYYDEDAADYAVAFIEALSHTKGLWAGKPFELIDWQEQIIRDLFGILKPDGYRQFNTAYVEIPKKMGKSELAAAIALLLTCGDGEERAEVYGCAADRQQASIVFEVAADMVRMCPALNKRVKLLASTKRLVYLPTNSFYQVLSAEAYSKHGFNIHGVVFDELHTQPNRKLFDVMTKGSGDARTQPLYFLITTAGTDTQSICYETHQKAVDIIEGRKYDPTFYPVIYGAKEEDDWTDPKVWKKANPSLGITVGIDKVRAACESAKQNPAEENSFRQLRLNQWVKQSVRWMPMAKWDACAFPVIPESLEGRVCYGGLDLSSTTDITAFVLVFPPEDETDKYIVLPYFWMPEDNIDLRVRRDHVQYDLWEKQGYILTTEGNVVHYGYIERFIEELGEKYNIREIAFDRWGAVQMVQNLEGAGFTVVPFGQGFKDMSPPTKELMKLTLEERIAHGGHPVLRWMMDNIFIKTDPAGNVKPDKEKSTEKIDGAVATIMALDRAIRCGSGNSGDSVYDERGLIVF” the value was “not soluble”.
